From US7906705B2

What was measured:
[1] = substrate: O=P(O)(O)O[C@H]1O[C@H](CO)[C@@H](O)[C@H](O)[C@H]1O; test: purified protein, by the assay type; settings: other: UDP sugar synthesis direction, 2.5 mM UTP, substrate 0 to 5 mM, pH 7.5, 30° C.
[2] = substrate: O=P(O)(O)O[C@H]1O[C@H](CO)[C@H](O)[C@H](O)[C@H]1O; test: purified protein, by the assay type; settings: other: UDP sugar synthesis direction, 2.5 mM UTP, substrate 0 to 5 mM, pH 7.5, 30° C., E. coli expressed, partially purified
[3] = E. coli expressed, partially purified

B1: melon UGPase (UDP glucose pyrophosphorylase), SEQ ID NO: 35 (Cucumis melo) (protein)
chain: MASAATLSPADTEKLSKLKASVSGLTQISENEKSGFINLVSRYLSGEAQHVEWSKIQTPTDEVVVPYDSLAPVPNDPAETKKLLDKLVVLKLNGGLGTTMGCTGPKSVIEVRNGLTFLDLIVIQIENLNSKYGCNVPLLLMNSFNTHDDTQKIIEKYKGSNVDIHTFNQSQYPRLVAEDYLPLPSKGRTDKDGWYPPGHGDVFPSLKNSGKLDALIAQGKEYVFVANSDNLGAVVDLQILNHLIQNKNEYCMEVTPKTLADVKGGTLISYEGKVQLLEIAQVPDEHVNEFKSIQKFKIFNTNNLWVNLKAIKRLVEANALKMEIIPNPKEVDGIKVLQLETAAGAAIRFFDHAIGINVPRSRFLPVKATSDLLLVQSDLYTLVDGFVLRNKARKDPSNPSIELGPEFKKVGNFLSRFKSIPSIIELDSLKVVGDVSFGAGVVLKGKVTISAKPGTKLAVPDNAVIANKEINGPEDF
With B1 the Km ([1]; ND = Not detected) was 240 µM and the Vmax ([1]; ND = Not detected) was 238 μmol mg protein^−1min^−1.

B2: melon UGGPase (UDP-Gal/Glc pyrophosphorylase), SEQ ID NO: 33 (Cucumis melo) (protein)
chain: MASSLDSAALTLSNLSINGDFASSLPNLQKNLHLLSPQQVELAKILLELGQSHLFEHWAEPGVDDNEKKAFFDQVARLNSSYPGGLASYIKTARGLLADSKEGKNPFDGFTPSVPTGEVLTFGDDSFVSFEDRGVREARKAAFVLVAGGLGERLGYNGIKVALPAETTTGTCFLQSYIEYVLALREASNRLAGESETEIPFVIMTSDDTHTRTVELLESNSYFGMKPSQVKLLKQEKVACLDDNEARLAVDPHNKYRIQTKPHGHGDVHALLYSSGLLKNWHNAGLRWVLFFQDTNGLLFKAIPASLGVSATREYHVNSLAVPRKAKEAIGGITRLTHTDGRSMVINVEYNQLDPLLRATGFPDGDVNNETGYSPFPGNINQLILELGSYIEELSKTQGAIKEFVNPKYKDATKTSFKSSTRLECMMQDYPKTLPPSARVGFTVMDTWVAYAPVKNNPEDAAKVPKGNPYHSATSGEMAIYRANSLVLRKAGVKVADPVEQVFNGQEVEVWPRITWKPKWGLTFSEIKSKINGNCSISPRSTLVIKGKNVYLKDLSLDGTLIVNADEDAEVKVEGSVHNKGWTLEPVDYKDTSVPEEIRIRGFRINKIEQEERN
B2 gave a Km [1, 3] of 270 µM, a Vmax [1, 3] of 222 μmol mg protein^−1min^−1 and a Km [2] of 430 µM. The Vmax [2] was 714 μmol mg protein^−1min^−1.
